# Patent publication US20250163119A1, “COMPOUNDS FOR THE TREATMENT OF DIABETES OR OBESITY” (Eli Lilly and Company, priority 2023, published 2025)
# *1 amine or outer side, *2 acyl side, *3 side chain or, on linkers, in order; H or OH if unused. Where no end group is shown, it is not given here. Side-chain parts run from the residue outwards. [ ]: non-standard residue; d: D form. The star is where a group is joined. C20 diacid = O=C(O)CCCCCCCCCCCCCCCCCCC(=O)*; γGlu = O=C(O)[C@H](CCC(=O)[*:2])N[*:1]; εLys = N[C@@H](CCCCN[*:1])C(=O)[*:2]; NMeI = CC[C@H](C)[C@H](NC)C(=O)O; pGlu = O=C1CC[C@@H](C(=O)O)N1; αMeL = CC(C)C[C@](C)(N)C(=O)O; AEEA = NCCOCCOCC(=O)O; Aib = CC(C)(N)C(=O)O
# B1: polypeptide comprising SEQ ID NO:50 (peptide)
# peptide: [NMeI]VTSLDVPIG[αMeL]LQKLLEQERAEKARQQAKEAAEILAQV-NH2
# modifications: not fully specified (residue 29)
# B2: Human urocortin-2 (UCN2) (ligand)
# peptide: IVLSLDVPIGLLQILLEQARARAAREQATTNARILARV-NH2
# B3: Reference compound SEQ ID NO:54 (peptide)
# peptide: [NMeI]VLSLDVPIGLLQILLEQEKQEKEKQQAKTNAQILAQV-NH2
# modifications: not fully specified (residue 29)
# B4: polypeptide comprising SEQ ID NO:1 (peptide)
# peptide: Ac-GSPSIVTS[αMeL]DVPT[Aib][αMeL]LQKILEQERAEKARQQAK([γGlu-AEEA-εLys-C20 diacid])EAAEILAQV-NH2
# B5: polypeptide comprising SEQ ID NO:2 (peptide)
# peptide: Ac-GSPSIVTS[αMeL]DVPT[Aib][αMeL]LQKLLEQERAEKARQQAK([γGlu-AEEA-εLys-C20 diacid])EAAEILAQV-NH2
# B6: polypeptide comprising SEQ ID NO:22 (peptide)
# peptide: [pGlu]GSPSGIVTS[αMeL]DVPT[Aib][αMeL]LQKILEQERAEKARQQAK([γGlu-AEEA-εLys-C20 diacid])EAAEILAQV-NH2
# B7: polypeptide comprising SEQ ID NO:25 (peptide)
# peptide: [γGlu]GSPSIVTS[αMeL]DVPT[Aib][αMeL]LQKILEQERAEKARQQATEAAEILAQV-NH2
# modifications: not fully specified (residue 1, N-terminus); also: Glu1 linked through its gamma-carboxyl to Gly2
# B8: polypeptide comprising SEQ ID NO:29 (peptide)
# peptide: Ac-IVTS[αMeL]D[dV]PTG[αMeL]LQIKLEQERAEKARQQAKENTEILAQV-NH2
# modifications: not fully specified (residue 29)
# B9: polypeptide comprising SEQ ID NO:46 (peptide)
# peptide: Ac-PPPIVTS[αMeL]D[dV]PT[Aib][αMeL]LQK[Aib]LEQERAEKARQQAK([γGlu-AEEA-εLys-C20 diacid])ENTEILAQV-NH2
# B10: polypeptide comprising SEQ ID NO:47 (peptide)
# peptide: Ac-PPPIVTS[αMeL]D[dV]PT[Aib][αMeL]LQKLLEQERAEKARQQAK([γGlu-AEEA-εLys-C20 diacid])EAAEILAQV-NH2
# B11: polypeptide comprising SEQ ID NO:48 (peptide)
# peptide: Ac-PPPIVTS[αMeL]DVPT[Aib][αMeL]LQKLLEQERAEKARQQAK([γGlu-AEEA-εLys-C20 diacid])EAAEILAQV-NH2
# B12: polypeptide comprising SEQ ID NO:49 (peptide)
# peptide: [NMeI]VTSLDVPIG[αMeL]LQKLIEQEKQEKEKQQAKENTEILAQV-NH2
# modifications: not fully specified (residue 29)
# Key:
# [1] = system: MHC-II presented peptides on human dendritic cells; assay: MAPPS assay (MHC-Associated Peptide Proteomics); format: cell-based
# Method: MAPPS profiles the MHC-II presented peptides on human dendritic cells treated with tested molecules. CD14+ cells, isolated from the PBMCs of normal human donors, were cultured and differentiated into immature DCs by incubation with IL-4 and GM-CSF. On day 4, culture media was replaced with fresh media containing tested molecules. On day 5, LPS was added to transform the cells into mature DCs. On day 6, cells were lysed in RIPA buffer with protease inhibitors. Immunoprecipitation of MHC-II complexes were performed using biotinylated anti-MHC-II antibody coupled to streptavidin beads. The bound complex was eluted and filtered. The isolated MHC-II peptides were analyzed by a mass spectrometer. Peptide identifications were generated by an internal proteomics pipeline using search algorithms with no enzyme and a bovine/human database with test sequences appended to the database. A KNIME workflow was used to process the identification files from the samples. Peptides identified from the test articles were aligned against the parent sequence of the test molecule. The output was used to determine the percentage of donors displaying MHC-II peptides from regions of the test molecule. Polypeptides comprising SEQ ID NOs:54, 49, 50, 29, 41, 45, 1, 22, 25 were tested in the MAPPs assay. […] Depending on the donors, up to three major clusters were observed, each slightly shifted from the others, altogether spanning residues 1-33.
# human CRHR2 = target: T1, human CRHR2 (Homo sapiens, UniProt Q13324); assay: Human CRHR2 cAMP assay (HTRF) in HEK293 cells stably expressing human CRHR2; format: cell-based; conditions: HEK293 cells overexpressing human CRHR2; relative EC50, maximum 10 nM human UCN2; mean ± SE; read-out: hCRHR2 cAMP EC50 (pM, ± SE)
# T1 construct: expressed in transfected cells
# T1 sequence (Q13324 1-438 isoform Q13324-2): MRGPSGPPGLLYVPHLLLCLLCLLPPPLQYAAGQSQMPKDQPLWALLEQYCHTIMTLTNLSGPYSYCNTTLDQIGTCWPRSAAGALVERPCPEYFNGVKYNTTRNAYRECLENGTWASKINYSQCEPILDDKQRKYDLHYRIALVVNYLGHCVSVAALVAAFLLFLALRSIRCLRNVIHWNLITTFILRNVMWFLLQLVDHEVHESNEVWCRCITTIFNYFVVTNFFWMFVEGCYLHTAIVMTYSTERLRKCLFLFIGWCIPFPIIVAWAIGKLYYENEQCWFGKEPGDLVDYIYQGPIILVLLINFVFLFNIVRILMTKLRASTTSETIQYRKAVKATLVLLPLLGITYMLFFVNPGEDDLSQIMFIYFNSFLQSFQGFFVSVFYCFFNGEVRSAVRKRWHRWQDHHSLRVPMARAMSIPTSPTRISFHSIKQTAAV
# Procedure, shortened: (§1)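 Gs-coupled receptor activation was followed as intracellular cAMP in stably transfected HEK293 cells, 25,000 (CRHR1) or 5,000 (CRHR2) per well, with 0.25 mM IBMX present. Stimulation lasted 1 h at 37° C for CRHR1 and 30 min at room temperature for CRHR2.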
# human CRHR1 = target: T2, human CRHR1 (Homo sapiens, UniProt P34998); assay: Human CRHR1 cAMP assay (HTRF) in HEK293 cells stably expressing human CRHR1; format: cell-based; conditions: HEK293 cells overexpressing human CRHR1; relative EC50, maximum 66 nM human UCN1; mean ± SE; read-out: hCRHR1 cAMP EC50 (pM, ± SE)
# T2 construct: expressed in transfected cells
# T2 sequence (P34998 24-415): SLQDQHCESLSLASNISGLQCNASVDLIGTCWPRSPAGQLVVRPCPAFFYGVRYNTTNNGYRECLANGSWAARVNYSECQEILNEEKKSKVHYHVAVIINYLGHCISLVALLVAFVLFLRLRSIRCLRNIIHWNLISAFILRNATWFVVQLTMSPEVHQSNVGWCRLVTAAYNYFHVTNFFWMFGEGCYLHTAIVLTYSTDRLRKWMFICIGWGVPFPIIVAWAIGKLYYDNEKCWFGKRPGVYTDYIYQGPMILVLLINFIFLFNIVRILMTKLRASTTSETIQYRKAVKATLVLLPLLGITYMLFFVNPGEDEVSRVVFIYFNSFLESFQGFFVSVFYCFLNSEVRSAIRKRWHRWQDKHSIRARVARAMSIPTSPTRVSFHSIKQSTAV
# Procedure, shortened: as §1
# [2] = target: T3, human corticotropin-releasing hormone receptor 1 (CRHR1) (human, UniProt P34998 24-415); assay: cell-based or functional assay
# T3 sequence (looked up): T2 sequence (P34998 24-415)
# [3] = target: rat CRHR2 (endogenous on A7r5 cells) (rat, UniProt P47866 20-411); assay: cell-based or functional assay
# Chain of rat CRHR2 (endogenous on A7r5 cells) (P47866 20-411): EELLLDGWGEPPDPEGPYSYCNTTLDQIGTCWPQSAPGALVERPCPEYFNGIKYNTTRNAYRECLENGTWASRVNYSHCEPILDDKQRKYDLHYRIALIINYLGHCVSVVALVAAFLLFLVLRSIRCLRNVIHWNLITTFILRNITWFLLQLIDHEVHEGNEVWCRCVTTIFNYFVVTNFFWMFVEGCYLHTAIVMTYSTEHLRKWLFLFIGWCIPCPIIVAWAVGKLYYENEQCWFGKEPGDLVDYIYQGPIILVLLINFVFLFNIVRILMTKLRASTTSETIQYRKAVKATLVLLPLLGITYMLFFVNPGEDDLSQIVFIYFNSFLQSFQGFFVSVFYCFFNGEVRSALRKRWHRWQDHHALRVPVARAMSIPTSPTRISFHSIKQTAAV
# [4] = target: T3, human corticotropin-releasing hormone …; assay: cell-based or functional assay; remark: listed apart in the source
Molecule,MAPPS Assay >10 donors with diverse MHC ([1]; donors displaying MHC-II peptides / donors tested),peptides displayed on MHC-II complexes ([1]; human dendritic cells from normal donors),immunogenicity compared with SEQ ID NO:54 ([1]; in the MAPPs assay and/or the T cell proliferation assay),MAPPS Assay >10 donors with diverse MHC ([1]; percentage of donors displaying MHC-II peptides) [%],EC50 (human CRHR2) [pM],EC50 (human CRHR1) [pM],Y79 cAMP EC50 [2] [µM],A7r5 cAMP EC50 [3] [pM],hCRHR1 cAMP EC50 [4] [µM]
"γGlu-GPSIVTS[αMeL]D[dV]PI[Aib][αMeL]LQIKLEQERAEKARQQAK([AEEA-AEEA-γGlu-C20 diacid])ENTEILAQV-NH2 [SEQ ID NO: 45, γE-GPSIVTS αMeL D (D-Val) PI Aib αMeL LQIKLEQERAEKARQQAK((2-[2-(2-Amino-ethoxy)-ethoxy]-acetyl)2-γE-CO-(CH2)18-CO2H)ENTEILAQV-NH2]",0/20,no peptides displayed on MHC-II complexes,substantial improvements in immunogenicity over a compound comprising SEQ ID NO:54,0,9 ± 3.6,3.7e+06,,,
B1,,,,,,,> 10,967,> 10
B2,,,,,,,> 10,,> 10
B3,,,,,,,6,471,> 10
B4,,,,,,,1.4,157,> 10
B5,,,,,,,2.1,544,> 10
B6,,,,,,,2.4,314,> 10
B7,,,,,,,0.62,112,> 10
B8,,,,,,,1,123,> 10
B9,,,,,,,4,313,> 10
B10,,,,,,,0.72,1060,2.3
B11,,,,,,,4.5,1160,> 10
B12,,,,,,,> 10,137,> 10
